# Results published in the DeepSol protein solubility set.
# Experiment: soluble on expression in E. coli; label from the status in PepcDB or PDB records
row,Sequence,soluble on expression in E. coli
1,MATESGSDSQLRRRRRRDPEGSEKTELSEREPALAVAGSEENDDENEERWVGPLPVEATLAKKRKVLEFERVYLDNLPSASMYERSYMHRDVITHVVCTKTDFIITASHDGHVKFWKKIEEGIEFVKHFRSHLGVIESIAVSSEGALFCSVGDDKAMKVFDVVNFDMINMLKLGYFPGQCEWIYCPGDAISSVAASEKSTGKIFIYDGRGDNQPLHIFDKLHVSPLTQIRLNPVYKAVVSSDKSGMIEYWTGPPHEYKFPKNVNWEYKTDTDLYEFAKCKAYPTSICFSPDGKKIATIGSDRKVRIFRFLTGKLMRVFDESLSMFTELQQMRQQLPDMEFGRRMAVERELEKVDAVRLVNIVFDETGHFVLYGTMLGIKVINVEPNRCVRILGKQENIRVMQLALFQGIAKKHRAAATIEMKASENPVLQNIQADPTIVCTSFKKNRFYMFTKRETEDTKTADSDRDVFNEKPSKEEVMAATQAEGPKRVSDSAIVHTSMGDIHIKLFPVECPKTVENFCVHSRNGYYNGHTFHRIIKGFMIQTGDPTGTGMGGESIWGGEFEDEFHSTLRHDRPYTLSMANAGSNTNGSQFFITVVPTPWLDNKHTVFGRVSKGMEVVQRIFNVKVNPQTDKPYEDVSIINITVK,soluble
2,MATESSSPSSVRKVVVHLRATGGAPILKQSKFKIPGTDKFAKVIDFLRRQLHSDSLFVYVNSAFSPNPDESVIDLYNNFGFDGKLVVNYACSMAWG,not soluble
3,MATFVPFVTCLDTGFWNEVNKKKLNDWKLDETPKCISSQLSLHQTEGFKCHLSLSYDSLSSLESTTGLSMSGTLLLYNTIESFKMVDKSDLIRSEAEKIWESITTRKWLQNPRLLSQFFIIAFADLKKFKYYYWTCVPALVYPSEIKQEITPLSSLGADHKILFDFYRKNNFPIFLYSKQSSKMLELSELENNTNPDEICVVVADPSPVAYSAGWMVRNVLAAVAHLHPTWKHCHIISLRSADSIGIKYTWTLPSAECSADGAQNAVPKAVGWERNANDKLQPISVDLSKEFDPKILMERSVDLNLSLIKWRLHPDIQLERYSQLKVLILGAGTLGCNIARCLIGWGVRHISFLDNSTVSYNNPVRQSLSEFEDARLGRGKAETAQAAIQRIFPSIQATAHRLTVPMPGHSIDEKDVPELEKDIAKLEQLVKDHDVVFLALDSREARWLPTVLASRHKKIAISVAIGFDTYVIIRHGIGSRSESVSDVSSSDSVPYSQLSCYFCSDVTAPGNSTFDRTLDQQCTVARPGTSMIASGIAVELLSSVLQYPDPLKTPASHDDNTTVLGAAPHQIRGFLGRFQQILPSVKRFDQCVACGDAIAAQFQQNGWKFVRDVMNSPGRLEEVTGLDELQNSVNAIDIDFEDDEDF,soluble
4,MATHVAIIGNGVGGFTTAQALRAEGFEGRISLIGDEPHLPYDRPSLSKAVLDGSLERPPILAEADWYGEARIDMLTGPEVTALDVQTRTISLDDGTTLSADAIVIATGSRARTMALPGSQLPGVVTLRTYGDVQVLRDSWTSATRLLIVGGGLIGCEVATTARKLGLSVTILEAGDELLVRVLGRRIGAWLRGLLTELGVQVELGTGVVGFSGEGQLEQVMASDGRSFVADSALICVGAEPADQLARQAGLACDRGVIVDHCGATLAKGVFAVGDVASWPLRAGGRRSLETYMNAQRQAAAVAAAILGKNVSAPQLPVSWTEIAGHRMQMAGDIEGPGDFVSRGMPGSGAALLFRLQERRIQAVVAVDAPRDFALATRLVEARAAIEPARLADLSNSMRDFVRANEGDLT,soluble
5,MATIRIHDEANTTIENQEEVASFLDSQEVIYEQWDITRLPEHLSEKYDLTEEEKQQILDTFETEIKDISTRRGYKAQDVISLSDSNPKLDELLENFKREHHHTDDEVRFIVSGHGIFVIQGQDGTFFDVRLNPGDLISVPENIRHYFTLQEDRKVVAVRIFVTTEGWVPIYEKDSVNQLEHHHHHH,not soluble
6,MATKLTPKQKAQLDELSMSEKIAILLIQVGEDTTGEILRHLDIDSITEISKQIVQLNGTDKQIGAAVLEEFFAIFQSNQYINTGGLEYARELLTRTLGSEEAKKVMDKLTKSLQTQKNFAYLGKIKPQQLADFIINEHPQTIALILAHMEAPNAAETLSYFPDEMKAEISIRMANLGEISPQVVKRVSTVLENKLESLTSYKIEVGGLRAVAEIFNRLGQKSAKTTLARIESVDNKLAGAIKEMMFTFEDIVKLDNFAIREILKVADKKDLSLALKTSTKDLTDKFLNNMSSRAAEQFVEEMQYLGAVKIKDVDVAQRKIIEIVQSLQEKGVIQTGEEEDVIE,not soluble
7,MATLLEQLSTMTVVVADTGDLDAIRKFTPRDATTNPSLILAAAQIPAYQSLIDEALHSSRQLLGNSAAVEEVVHEALDEICVIFGKEILKIVPGRVSTEVDARLSFNTEATIAKAHKLIGLYNDAGITNDRVLIKIASTWEGIKAAEVLEKDGIHCNLTLLFGFSQAVACAEAGVTLISPFVGRILDWYKASTGRDSYAGPEDPGVISVTKIFNYFKTYDYKTEIMGASFRNLDEIIELAGCDLLTISPKLLDQLGSTEAPLKRKLDAVNPVAAESQIHVDKESFESMMRADRMAFEKLDEGIRGFSKAIETLEAQLAHRLAVLEGGAAFCHVVQEIFMLNDLDGDGCITREEWLGSDAVFDALDHDHDGRLLQEDVRSGLGAALALTTA,not soluble
8,MATLLFFSKPISDFVLGDKVGFDAKILESNDRILLIKPLQIGVDSNISVIDNEGKIFSFYVFSTTFTSSKHPNLQVFIEDKNYYSNAFLKPQKENMAENAPKDAPTNNKPLKEEKEETKEKEEETITIGDNTNAMKIVKKDIQKGYKALKSSQRKWYCLGICSKKSKLSLMPKEIFNDKQFTYFKFDKRLALSKFPVIYKVVDGYDNPVNTRIVGDYIIAEDVSAKWTLRLGKDYLCIRFVKKAKDE,not soluble
9,MATPEGQAEEKAVKLAAEEINAQGGILGYKVEVVVGDTKLDSNTATSEFRRLATVENADVIIGGFSSGVMTAMMETMAETKTLFLSDASSPAHAQKVEQNYEKYKYWFRVSQNNGSTFALDLADMVKFLRDSGYEVKKVYIIRDEHVWTDPVMAALKPLLEEMGVEIVKDVKIPRGYSEYEQLILEAESLNADLIMPILAISGTGDVLAKQWATLKPNLLLAGHDLAPIDPEFYEKTNGMANYEIFLADGGALVTAPPTEKCREFVEAYKAKYGHYPESHQAYGAYDAVYLYKMVVEMAAKNGEKDPFNPDVLVKYLEKFDASNPVKLTRTIAFYPNHDLMWGDDYVRNWISQWQDGKQYIIYPPSVANGELKLPPWIEK,not soluble
10,MATVAFQTLGCKVNHYETEAIWQLFKGEGYEKVDFEQMADVYVINTCTVTNTGDKKSRQVIRRAIRKNPDAVICVTGCYAQTSPAEVMAIPGVDIVVGTQDRKKMLEYIEQYKKERQPINGVGNIMKSRVYEELDVPAFTDRTRASLKIQEGCNNFCTFCIIPWARGLMRSRDPKEVIKQAEQLVQAGYKEIVLTGIHTGGYGEDLKDYSLARLLEDLEQVNGLKRIRISSIEASQLTDEVIEVIDRSTKVVRHLHIPLQSGSDTVLKRMRRKYTMAFFAERLERLREALPGLAVTSDVIVGFPGETEAEFQETYDFIAKHKFSELHVFPYSKRTGTPAARMEDQVNEDVKNERVHRLIQLSDQLAKEYASQFEGEVLEMIPEERDKEEPNSGLYVGYTDNYLKVKIPATDEMIGKLVKVKITKAGYPYNEGEFVRVLDEEPQAVAHGLEHHHHHH,soluble
11,MAVDVFITAPSSTPLACEMTISKLVLASGSPRRRELLAQMGYQFEVVVPNVEEKRAAAESPAQYVERLSRDKALAGAALVAAEAVVIGSDTIVVKDQQVLEKPRDFADAKRMLLKLSGSQHQVMTGVSVTCRGITHSVVVTTEVWFKTLSEQEIEAYWQSGEPCDKAGSYGIQGLGGRFVTRIEGSYHAVVGLPLYETDQLLHKF,not soluble
12,MAVELPKAAIERIFRQGIGERRLSQDAKDTIYDFVPTMAEYVANAAKSVLDASGKKTLMEEHLKALADVLMVEGVEDYDGELFGRATVRRILKRAGIERASSDAVDLYNKLICRATEELGEKAAEYADEDGRKTVQGEDVEKAITYSMPKGGEL,soluble
13,MAVGKNKGLSKGGKKGGKKKVVDPFSRKDWYDVKAPNMFQTRQIGKTLVNRTQGQRIASDYLKGRVFEVSLADLQKDIDPERSFRKFRLIAEDVQDRNVLCNFHGMDLTTDKYRSMVKKWQTLIEAIVEAKTVDGYLLRVFCIGFTAKDQQSQRKTCYAQQSQVRKIRARMTDIITNEVSGADLKQLVNKLALDSIAKDIEKSCQRIYPLHDVYIRKVKVLKKPRFDVSKLLELHGDGGGKSVEAVVSSEGAVIDRPEGYEPPVQEAVLEHHHHHH,soluble
14,MAVIVRKWFGLGRLPADLRCQVEAEGLIYLAEYVAVTRRFTGVIPGLRASHSIASYVGALAFTEQRVLGTLSMVPKLAGRVVDARWDGPQAGAATAEISPTGLQLDLDVADVDPKFSGQLALHFKATIGEDVLSRLPRRSLAFDVPAEYVNLAVGVTYSP,soluble
15,MAVKMKYWTDEVGGERGSLKVELKPFGYRIIPLTQWKTLIAMDDVEVKKGEPEIIEVRPFTIPGGTMVGPLHIMRHALGTVLDVVECGIPTRVEDEKCIQRVVFLPVDDGVVREGDIVGVLKVFFIKTGLISRLFNLKPTKVELREEIVEANITWRDDGNIYREKISTKVFGYTRTHVGVWEPLVADEDVGVRAGDVLRVKIRNVELPPNTVVVPLSISRNPYGVVVDVVQLGKPRRVEEPKNIEQAVFLAVDDGEIKRGDLLGVINVYYVGLKKLEPLIATKEPQDFTLVYRKEEKIIRKKVHLPPFGYHRSPVARWEVVVAAEDKELTKNKPVRVKIKKIKIPANTIVYPMEIMRHSDGVLIDLVSDLPWRVEEGGKVDEAIFLPLFDGKIEKDDLLGVINLYQVELSPVEKIREMYNRFVKLSEEELMKYVEGLQ,soluble
16,MAVRVAINGFGRIGRNILRAIVESGRTDIQVVAINDLGPVETNAHLLRYDSVHGRFPKEVEVAGDTIDVGYGPIKVHAVRNPAELPWKEENVDIALECTGIFTSRDKAALHLEAGAKRVIVSAPADGADLTVVYGVNNDKLTKDHLVISNASCTTNCLAPVAQVLNDTIGIEKGFMTTIHSYTGDQPTLDTMHKDLYRARAAALSMIPTSTGAAKAVGLVLPELKGKLDGVAIRVPTPNVSVVDLTFIAKRETTVEEVNNAIREAANGRLKGILGYTDEKLVSHDFNHDSHSSVFHTDQTKVMDGTMVRILSWYDNEWGFSSRMSDTAVALGKLI,soluble
17,MAYAYLFKYIIIGDTGVGKSCLLLQFTDKRFQPVHDLTIGVEFGARMITIDGKQIKLQIWDTAGQESFRSITRSYYRGAAGALLVYDITRRDTFNHLTTWLEDARQHSNSNMVIMLIGNKSDLESRREVKKEEGEAFAREHGLIFMETSAKTASNVEEAFINTAKEIYEKIQEGVFDINNEANGIKIGPQHAATNASHGSNQGGQQAGGGCC,soluble
18,MCAHRPATAPDFLLSRSHGSIRTQGAVETFSDPGKAVEALRSGRVELVVGALAFRRDHACALTVPRSVIREEGPLEPHAYYRQGPGSIVNAQVEKLVPSLDKHHARVEAAINTIKSTSLKKVVLARAVDMTFSPAVDPRLIAARLIDLSRNRDGFIADLTPAGEDFAGAM,not soluble
19,MCGRFVITSAPAAIRQLFGYADQPNFPSRYNIAPTQPVPVVIVDEGARRFRLMRWGLIPSWVKDPRMFSLLINARADTIQDKPAFRNAFRRRRCLVPADGYYEWKAGGSRKQPYFIHPAGGGPIGFAALWETWTGPNGEELDTVAIVTTAARGGLADLHDRVPVTIAPHHFARWLETDETDTEAVMALLGPPGEGEFVWHPVSTAVNRTANDNPQLILPIAAEEVEAPPPAVAKPAPPKRAARPKISADDSGQGSLFLEHHHHHH,soluble
